# Assay results from US20200199206A1 (AC THERA, published 2020).
# T1: LF-Biotin (B. anthracis, UniProt P15917 34-809)
# T1 sequence: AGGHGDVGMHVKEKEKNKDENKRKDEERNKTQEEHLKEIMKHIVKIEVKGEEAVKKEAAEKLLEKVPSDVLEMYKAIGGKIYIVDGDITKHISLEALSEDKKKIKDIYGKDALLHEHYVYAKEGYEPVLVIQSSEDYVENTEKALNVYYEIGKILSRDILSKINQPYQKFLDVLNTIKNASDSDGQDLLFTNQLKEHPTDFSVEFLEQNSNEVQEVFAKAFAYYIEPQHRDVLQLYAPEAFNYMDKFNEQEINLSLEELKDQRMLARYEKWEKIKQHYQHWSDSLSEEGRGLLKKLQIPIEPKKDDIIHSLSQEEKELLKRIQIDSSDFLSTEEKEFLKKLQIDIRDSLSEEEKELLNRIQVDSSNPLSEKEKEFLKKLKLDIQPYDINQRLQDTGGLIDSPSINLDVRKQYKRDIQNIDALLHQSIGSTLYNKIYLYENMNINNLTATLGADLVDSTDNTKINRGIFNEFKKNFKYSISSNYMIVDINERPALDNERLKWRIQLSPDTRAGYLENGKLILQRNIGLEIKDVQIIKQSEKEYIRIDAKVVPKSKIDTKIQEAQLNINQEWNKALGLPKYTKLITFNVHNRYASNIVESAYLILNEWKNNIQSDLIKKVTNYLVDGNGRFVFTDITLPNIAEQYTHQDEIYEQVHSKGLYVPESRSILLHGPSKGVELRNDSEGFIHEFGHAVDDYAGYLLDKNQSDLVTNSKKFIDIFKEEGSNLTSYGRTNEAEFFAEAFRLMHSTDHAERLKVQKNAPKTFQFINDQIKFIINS
# T2: EF-Biotin (B. anthracis, UniProt P40136 34-800)
# T2 sequence: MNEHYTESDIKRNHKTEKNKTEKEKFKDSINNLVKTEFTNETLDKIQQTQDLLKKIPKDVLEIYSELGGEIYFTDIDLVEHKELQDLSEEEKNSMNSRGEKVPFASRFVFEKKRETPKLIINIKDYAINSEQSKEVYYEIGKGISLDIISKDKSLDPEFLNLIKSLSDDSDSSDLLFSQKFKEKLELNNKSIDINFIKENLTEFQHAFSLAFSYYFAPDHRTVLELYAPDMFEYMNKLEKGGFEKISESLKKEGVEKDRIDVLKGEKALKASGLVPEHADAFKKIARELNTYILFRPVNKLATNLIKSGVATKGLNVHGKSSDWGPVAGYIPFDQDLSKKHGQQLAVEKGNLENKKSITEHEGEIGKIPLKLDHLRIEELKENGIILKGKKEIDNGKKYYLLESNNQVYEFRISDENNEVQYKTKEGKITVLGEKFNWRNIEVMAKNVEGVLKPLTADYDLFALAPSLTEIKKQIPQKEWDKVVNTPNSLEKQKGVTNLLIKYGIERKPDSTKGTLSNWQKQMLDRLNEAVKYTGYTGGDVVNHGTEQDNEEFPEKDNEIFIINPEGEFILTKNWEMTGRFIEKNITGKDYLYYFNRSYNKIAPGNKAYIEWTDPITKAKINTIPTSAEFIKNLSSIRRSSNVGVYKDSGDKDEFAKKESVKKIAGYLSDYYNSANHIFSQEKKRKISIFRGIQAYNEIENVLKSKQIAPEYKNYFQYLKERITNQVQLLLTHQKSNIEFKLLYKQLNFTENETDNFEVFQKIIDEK
# B1: clone 7 (VHH)
# VHH: EVQLQASGGGFVQPGGSLRLSCAASGTSYANSDMGWFRQAPGKEREFVSAISGGDSAYYYYADSVKGRFTISRDNSKNTVYLQMNSLRAEDTATYYCATQQIGMREYYWGQGTQVTVSS
# B2: clone 28 (VHH)
# VHH: EVQLQASGGGFVQPGGSLRLSCAASGASYRGTSMGWFRQAPGKEREFVSAISFRPDQQPYYADSVKGRFTISRDNSKNTVYLQMNSLRAEDTATYYCAERRQHSRGLYWGQGTQVTVSS
# B3: clone 44 (VHH)
# VHH: EVQLQASGGGFVQPGGSLRLSCAASGFTSGSTAMGWFRQAPGKEREFVSAISRFENQGNYYADSVKGRFTISRDNSKNTVYLQMNSLRAEDTATYYCATRAVASSTMYWGQGTQVTVSS
# B4: clone 66 (VHH)
# VHH: EVQLQASGGGFVQPGGSLRLSCAASGTGSNASAMGWFRQAPGKEREFVSAISRHEGQPPYYADSVKGRFTISRDNSKNTVYLQMNSLRAEDTATYYCAMRYQSHIDIPGDSSPKLMYWGQGTQVTVSS
# B5: clone 60 (VHH)
# VHH: EVQLQASGGGFVQPGGSLRLSCAASGSTFKHSAMGWFRQAPGKEREFVSAISSGPGMESYYADSVKGRFTISRDNSKNTVYLQMNSLRAEDTATYYCAGRAFPGQKMYWGQGTQVTVSS
# B6: clone 49 (VHH)
# VHH: EVQLQASGGGFVQPGGSLRLSCAASGGFFTSSTMGWFRQAPGKEREFVSAISRQHDNAPYYADSVKGRFTISRDNSKNMVYLQMNSLRAEDTATYYCAARNATHKGIYWGQGTQVTVSS
# B7: clone 42 (VHH)
# VHH: EVQLQASGGGFVQPGGSLRLSCAASGDGSFASAMGWFRQAPGKEREFVSAISAHAGGSPYYADSVKGRFTISRDNSKNTVYLQMNSLRAEDTATYYCAQRIGATRAMYWGQGTQVTVSS
# B8: clone 26 (VHH)
# VHH: EVQLQASGGGFVQPGGSLRLSCAASGAYSARTTMGWFRQAPGKEREFVSAISAHEGQAPYYADSVKGRFTISRDNSKNTVYLQMNSLRAEDTATYYCATRAHEPKGMYWGQGTQVTVSS
# B9: clone 4 (VHH)
# VHH: EVQLQASGGGFVQPGGSLRLSCAASGRTFRIDTMGWFRQAPGKEREFVSAISFDTSHENYYADSVKGRFTISRDNSKNTVYLQMNSLRAEDTATYYCAPESMWFSIEYWGQGTQVTVSS
# B10: clone 40 (VHH)
# VHH: EVQLQASGGGFVQPGGSLRLSCAASGRTFDGSAMGWFRQAPGKEREFVSAISASPSGESYYADSVKGRFTISRDNSKNTVYLQMNSLRAEDTATYYCAGRGRSQKSMYWGQGTQVTVSS
# B11: clone 6 (VHH)
# VHH: EVQLQASGGGFVQPGGSLRLSCAASGTTYSSDTMGWFRQAPGKEREFVSAISGRQNWDRYYADSVKGRFTISRDNSKNTVYLQMNSLRAEDTATYYCAYWGHGTYEFDPKSMYWGQGTQVTVSS
# B12: clone 8 (VHH)
# VHH: EVQLQASGGGFVQPGGSLRLSCAASGSTSSHYDMGWFRQAPGKEREFVSAISYNHDHDTYYADSVKGRFTISRDNSKNTVYLQMNSLRAEDTATYYCAGATATTDGGYQEYWGQGTQVTVSS
# B13: clone 57 (VHH)
# VHH: EVQLQASGGGFVQPGGSLRLSCAASGGTSFQTAMGWFRQAPGKEREFVSAISSRQGSHPYYADSVKGRFTISRDNSKNTVYLQMNSLRAEDTATYYCATRMTETRKMYWGQGTQVTVSS
# B14: clone 9 (VHH)
# VHH: EVQLQASGGGFVQPGGSLRLSCAASGSYSAETDMGWFRQAPGKEREFVSAISGDPTTTTYYADSVKGRFTISRDNSKNTVYLQMNSLRAEDTATYYCAYQRLDNFEIYWGQGTQVTVSS
# B15: clone 1 (VHH)
# VHH: EVQLQASGGGFVQPGGSLRLSCAASGDTYRWDNMGWFRQAPGKEREFVSAISGLGNMDSYYADSVKGRFTISRDNSKNTVYLQMNSLRAEDTATYYCAQEEKWMSPQYWGQGTQVTVSS
# B16: clone 10 (VHH)
# VHH: EVQLQASGGGFVQPGGSLRLSCAASGRTSWSEIMGWFRQAPGKEREFVSAISRYTDDYSYYADSVKGRFTISRDNSKNTVYLQMNSLRAEDTATYYCATYHYQYGGDQTFYWGQGTQVTVSS
# B17: clone 41 (VHH)
# VHH: EVQLQASGGGFVQPGGSLRLSCAASGDTWRTTAMGWFRQAPGKEREFVSAISGGDNRGTYYADSVKGRFTISRDNSKNTVYLQMNSLRAEDTATYYCAGRLNQNGPMYWGQGTQVTVSS
# B18: clone 3 (VHH)
# VHH: EVQLQASGGGFVQPGGSLRLSCAASGSTSYSYNMGWFRQAPGKEREFVSAISRDGDWKNYYADSVKGRFTISRDNSKNTVYLQMNSLRAEDTATYYCAFEEHWMTPLYWGQGTQVTVSS
# B19: clone 2 (VHH)
# VHH: EVQLQASGGGFVQPGGSLRLSCAASGFFSNIEDMGWFRQAPGKEREFVSAISGYENESPYYADSVKGRFTISRDNSKNTVYLQMNSLRAEDTATYYCAAQSYHGKKGMTEYWGQGTQVTVSS
# B20: clone 5 (VHH)
# VHH: EVQLQASGGGFVQPGGSLRLSCAASGTTSFRDTMGWFRQAPGKEREFVSAISWNEGHAHYYADSVKGRFTISRDNSKNTVYLQMNSLRAEDTATYYCASEDMWFNHFYWGQGTQVTVSS
# Legend:
# LF-Biotin [1] = target: T1, LF-Biotin; experiment: non-adsorbed phage ELISA, VHH on M13 phage, LF-Biotin vs His-SNAP-Halo-Biotin
# LF-Biotin [2] = target: T1, LF-Biotin; experiment: non-adsorbed VHH ELISA, IPTG-induced VHH-myc, LF-Biotin vs His-SNAP-Halo-Biotin
# EF-Biotin [3] = target: T2, EF-Biotin
# EF-Biotin [4] = target: T2, EF-Biotin; experiment: non-adsorbed VHH ELISA, IPTG-induced VHH-myc, EF-Biotin (Ag+) vs control (Ag-)
Binder,Phage ELISA ratio signal LF/signal His-SNAP-Halo (LF-Biotin [1]) [ratio],Induced ELISA ratio Signal LF/signal His-SNAP-Halo (LF-Biotin [2]) [ratio],Phage ELISA Ag+/Ag- (EF-Biotin [3]) [ratio],Phage IPTG Ag+/Ag- (EF-Biotin [4]) [ratio]
B1,17,6.8,,
B2,,,44.5,6.6
B3,,,52.7,6.1
B4,,,51.8,5.8
B5,,,43.6,4.9
B6,,,36.7,3.6
B7,,,36.2,5
B8,,,51.3,10.2
B9,34.6,9.2,,
B10,,,31.5,6.2
B11,8.9,7.3,,
B12,30.2,5.5,,
B13,,,40.1,6.3
B14,38.1,4.6,,
B15,45.5,6.3,,
B16,7.7,3.9,,
B17,,,36.7,5.7
B18,47.2,6.3,,
B19,36.5,5,,
B20,41.5,8,,
